# Test results: patent US20240383959A1, “CELL-FREE METHODS AND COMPOSITIONS COMPRISING TAGLESS THERAPEUTIC HORMONES” (Northwestern University, priority 2021, published 2024)
# Key:
# [1] = biological target: T1, parathyroid hormone receptor (Homo sapiens, UniProt Q03431); assay: Biolayer interferometry (BLI) of PTH binding to its receptor; conditions: undiluted CFPS PTH or 67 μg/ml commercial PTH; with and without receptor on tip
# T1 construct: purchased R&D systems 5709-PR-50
# T1 sequence (Q03431 27-186 limits assumed): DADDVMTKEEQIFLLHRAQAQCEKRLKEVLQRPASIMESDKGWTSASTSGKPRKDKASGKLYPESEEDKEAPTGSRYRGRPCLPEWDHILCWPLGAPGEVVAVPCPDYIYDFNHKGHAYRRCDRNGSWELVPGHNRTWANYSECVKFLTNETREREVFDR
# Source text: In fact, the entire sequences except for the two N-terminal and C-terminal amino acids were confirmed for both GLP-1 mutant and GLP-1 in these experiments. The peptide hormones are cleaved precisely at the C-terminus of SUMO to give tagless hormones as expected. […] There was low signal relative to GH, however, the binding signal is still more than 3 standard deviations above the background noise. Unfortunately, this binding was unable to be confirmed with BLI, likely because the hormone is too small (3.5 kDa) to generate enough of a wavelength shift to be detected by the instrument (FIG. 9f). […] Full-length parathyroid hormone was detected in the deconvoluted LC-MS spectra with an observed mass of 9424.66 Da, which matches the theoretical mass of 9424.73 Da with an error of 7.4 ppm (FIG. 10a). PTH was also detected by two orthogonal antibodies in a commercial sandwich ELISA assay (Biomatik EKF58372). The concentration was determined to be 24±11 μg/ml with 4 dilutions of a single sample (FIG. 10a). This value is approximately 80% of that detected by BCA and densitometry. […] Black lines represent a commercially purchased positive control PTH (OriGene SA6052) where there is no receptor immobilized on the lightly shaded line and receptor immobilized with the dark line. […]
# [2] = biological target: T2, extracellular domain of PTH receptor (Homo sapiens, UniProt Q03431); assay: AlphaLISA cross-titration of PTH and PTH receptor; format: binding; conditions: sFLAG-tagged PTH, anti-FLAG donor beads; His-tagged PTH receptor, nickel chelate acceptor beads
# T2 construct: purchased Abcam ab182670
# T2 sequence (Q03431 27-186 limits assumed): T1 sequence (Q03431 27-186 limits assumed)
# Escherichia coli MG1655 = assay: Plate-based growth inhibition assay; format: cell-based; conditions: overnight incubation, 384 well plate, two replicates; peptide purified from CFPS
# Procedure: Antimicrobial peptide activity was tested with a plate-based growth inhibition study. A 5 ml culture of Escherichia coli MG1655 was grown overnight on Luria Broth (LB) from a glycerol stock. On the day of the assay, the overnight culture was diluted to an OD of 0.08 in LB and then grown to mid log phase (OD ˜0.5). The mid log phase cells were diluted to […] (assuming 1 OD=8×10^8 cells/ml) into LB with 0.005% Antifoam 204 (Sigma A6426) and 1 mg/ml BSA (Sigma-Aldrich A2153-100G). 5 μl of these cells were added to 10 μl of purified antimicrobial peptide in a UV-sterilized 384 well, clear bottom plate (Greiner Bio-One 781096). Positive controls included 10 μl of the wash buffer the hormones were dissolved in and 10 μl of a no DNA control where no DNA template was added to the CFPS reactions, but the sample was treated exactly like the other antimicrobial peptide samples. Negative controls included a final kanamycin concentration of 50 μg/ml and adding 10 μl of the LB with 0.005% Antifoam 204 and 1 mg/ml BSA without E. coli cells. The plate was sealed with a microseal B adhesive (Bio-Rad MSB1001) and incubated in a plate reader with continuous shaking for 18 hr at 37° C. and absorbance measurements at 600 nm every 15 min.
PTH binding to extracellular domain of its receptor (BLI) [1],Substance,PTH interaction with extracellular domain of its receptor (AlphaLISA) [2],Growth of E. coli MG1655 (Escherichia coli MG1655)
high background binding,positive control PTH: commercially purchased positive control PTH (OriGene SA6052) [reference compound],–,–
unable to detect PTH binding,Parathyroid Hormone [PTH],very low signal that has a typical binding pattern,–
–,Melittin,–,inhibiting growth of the bacteria
